Data as given in the supplement of paper PMC10065799, “High-throughput profiling of sequence recognition by tyrosine kinases and SH2 domains using bacterial peptide display” (eLife, 2023).

How the values were obtained:
EPHB2 = EPHB2 (UniProt P29323); assay: phosphorylation enrichment, bacterial display (enrichment ratio); higher = better substrate or ligand; peptides without Tyr show the background
Fer (mouse) = assay: as above
Fyn = Fyn (UniProt P06241); assay: as above
Jak2 = Jak2 (UniProt O60674); assay: as above
Chain of Jak2 (O60674 whole entry, looked up): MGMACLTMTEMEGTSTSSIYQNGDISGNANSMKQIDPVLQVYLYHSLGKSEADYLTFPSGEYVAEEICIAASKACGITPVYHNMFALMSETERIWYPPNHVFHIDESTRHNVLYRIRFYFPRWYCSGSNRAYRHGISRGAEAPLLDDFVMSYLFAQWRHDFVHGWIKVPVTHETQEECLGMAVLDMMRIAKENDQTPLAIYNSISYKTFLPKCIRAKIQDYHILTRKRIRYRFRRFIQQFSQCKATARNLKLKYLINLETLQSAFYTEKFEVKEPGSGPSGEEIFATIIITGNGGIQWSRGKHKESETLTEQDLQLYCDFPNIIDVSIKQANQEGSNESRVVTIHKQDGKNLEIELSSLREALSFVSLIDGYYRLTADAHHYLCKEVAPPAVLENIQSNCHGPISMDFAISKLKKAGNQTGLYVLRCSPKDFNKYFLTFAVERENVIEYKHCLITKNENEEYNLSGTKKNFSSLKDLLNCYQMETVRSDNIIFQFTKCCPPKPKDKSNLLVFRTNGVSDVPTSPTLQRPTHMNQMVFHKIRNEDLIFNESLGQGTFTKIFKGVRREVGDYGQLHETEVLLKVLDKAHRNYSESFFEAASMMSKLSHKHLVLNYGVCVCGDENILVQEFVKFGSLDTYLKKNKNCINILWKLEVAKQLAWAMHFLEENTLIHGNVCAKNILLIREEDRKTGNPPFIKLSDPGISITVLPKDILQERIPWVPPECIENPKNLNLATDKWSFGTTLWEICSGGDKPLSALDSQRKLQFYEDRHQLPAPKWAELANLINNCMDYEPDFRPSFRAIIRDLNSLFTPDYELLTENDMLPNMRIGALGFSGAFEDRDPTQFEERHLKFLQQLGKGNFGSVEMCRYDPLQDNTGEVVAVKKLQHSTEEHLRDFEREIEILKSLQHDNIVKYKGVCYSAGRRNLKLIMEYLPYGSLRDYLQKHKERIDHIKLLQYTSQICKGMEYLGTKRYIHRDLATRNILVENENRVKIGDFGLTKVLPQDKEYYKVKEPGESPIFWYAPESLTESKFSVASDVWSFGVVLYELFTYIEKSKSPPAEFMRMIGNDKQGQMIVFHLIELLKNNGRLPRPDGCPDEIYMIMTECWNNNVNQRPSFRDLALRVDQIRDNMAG

FGFR3 = FGFR3 (UniProt P22607); assay: as above
Chain of FGFR3 (P22607 whole entry, looked up): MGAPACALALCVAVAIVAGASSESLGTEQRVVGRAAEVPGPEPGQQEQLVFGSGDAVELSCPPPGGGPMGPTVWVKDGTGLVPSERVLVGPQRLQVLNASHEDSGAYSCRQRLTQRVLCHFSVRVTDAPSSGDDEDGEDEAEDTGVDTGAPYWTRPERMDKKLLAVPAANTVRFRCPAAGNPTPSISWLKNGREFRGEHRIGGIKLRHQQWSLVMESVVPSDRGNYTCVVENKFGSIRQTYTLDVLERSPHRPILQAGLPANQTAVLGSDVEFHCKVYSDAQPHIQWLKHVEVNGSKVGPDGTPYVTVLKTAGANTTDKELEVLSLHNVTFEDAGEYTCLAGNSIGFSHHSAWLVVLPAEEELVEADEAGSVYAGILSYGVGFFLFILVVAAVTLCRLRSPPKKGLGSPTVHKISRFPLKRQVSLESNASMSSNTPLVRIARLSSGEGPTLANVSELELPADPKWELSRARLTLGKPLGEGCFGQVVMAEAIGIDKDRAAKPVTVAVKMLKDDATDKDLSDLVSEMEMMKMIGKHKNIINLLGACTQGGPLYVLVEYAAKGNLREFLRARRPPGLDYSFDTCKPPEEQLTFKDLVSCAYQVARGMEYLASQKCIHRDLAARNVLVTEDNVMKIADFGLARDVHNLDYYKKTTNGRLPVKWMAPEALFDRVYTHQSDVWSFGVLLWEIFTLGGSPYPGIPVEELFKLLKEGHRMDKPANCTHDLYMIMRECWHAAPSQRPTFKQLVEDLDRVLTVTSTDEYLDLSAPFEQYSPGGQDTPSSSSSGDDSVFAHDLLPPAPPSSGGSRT

MERTK = MERTK (UniProt Q12866); assay: as above
Chain of MERTK (Q12866 whole entry, looked up): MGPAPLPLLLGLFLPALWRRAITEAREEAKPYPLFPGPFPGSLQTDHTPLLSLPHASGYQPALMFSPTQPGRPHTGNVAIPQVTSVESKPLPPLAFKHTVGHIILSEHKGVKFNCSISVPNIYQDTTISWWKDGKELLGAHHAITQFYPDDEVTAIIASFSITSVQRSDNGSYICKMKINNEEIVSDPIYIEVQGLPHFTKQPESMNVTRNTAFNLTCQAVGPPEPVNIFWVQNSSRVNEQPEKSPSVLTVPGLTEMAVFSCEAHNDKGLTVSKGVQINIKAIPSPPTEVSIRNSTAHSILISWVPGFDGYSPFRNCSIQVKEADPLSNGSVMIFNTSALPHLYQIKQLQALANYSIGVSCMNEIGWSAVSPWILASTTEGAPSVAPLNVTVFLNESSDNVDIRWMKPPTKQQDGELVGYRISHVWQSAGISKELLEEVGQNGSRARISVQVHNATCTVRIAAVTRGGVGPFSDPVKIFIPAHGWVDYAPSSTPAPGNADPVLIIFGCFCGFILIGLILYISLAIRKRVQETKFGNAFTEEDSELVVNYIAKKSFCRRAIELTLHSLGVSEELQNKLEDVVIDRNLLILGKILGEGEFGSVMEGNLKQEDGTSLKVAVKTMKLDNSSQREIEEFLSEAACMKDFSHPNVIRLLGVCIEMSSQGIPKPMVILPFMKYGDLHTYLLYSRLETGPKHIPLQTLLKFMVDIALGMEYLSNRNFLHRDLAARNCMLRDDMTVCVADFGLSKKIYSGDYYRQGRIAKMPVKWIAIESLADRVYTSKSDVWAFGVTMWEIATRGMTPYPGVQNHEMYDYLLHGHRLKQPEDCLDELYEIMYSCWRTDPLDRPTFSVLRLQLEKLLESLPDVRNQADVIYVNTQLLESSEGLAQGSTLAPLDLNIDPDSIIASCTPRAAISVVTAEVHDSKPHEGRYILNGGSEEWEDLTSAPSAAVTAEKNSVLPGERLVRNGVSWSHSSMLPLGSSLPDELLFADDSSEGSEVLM

Hck = Hck (UniProt P08631); assay: as above
c-Src = assay: as above
Fes = Fes (UniProt P07332); assay: as above
Chain of Fes (P07332 whole entry, looked up): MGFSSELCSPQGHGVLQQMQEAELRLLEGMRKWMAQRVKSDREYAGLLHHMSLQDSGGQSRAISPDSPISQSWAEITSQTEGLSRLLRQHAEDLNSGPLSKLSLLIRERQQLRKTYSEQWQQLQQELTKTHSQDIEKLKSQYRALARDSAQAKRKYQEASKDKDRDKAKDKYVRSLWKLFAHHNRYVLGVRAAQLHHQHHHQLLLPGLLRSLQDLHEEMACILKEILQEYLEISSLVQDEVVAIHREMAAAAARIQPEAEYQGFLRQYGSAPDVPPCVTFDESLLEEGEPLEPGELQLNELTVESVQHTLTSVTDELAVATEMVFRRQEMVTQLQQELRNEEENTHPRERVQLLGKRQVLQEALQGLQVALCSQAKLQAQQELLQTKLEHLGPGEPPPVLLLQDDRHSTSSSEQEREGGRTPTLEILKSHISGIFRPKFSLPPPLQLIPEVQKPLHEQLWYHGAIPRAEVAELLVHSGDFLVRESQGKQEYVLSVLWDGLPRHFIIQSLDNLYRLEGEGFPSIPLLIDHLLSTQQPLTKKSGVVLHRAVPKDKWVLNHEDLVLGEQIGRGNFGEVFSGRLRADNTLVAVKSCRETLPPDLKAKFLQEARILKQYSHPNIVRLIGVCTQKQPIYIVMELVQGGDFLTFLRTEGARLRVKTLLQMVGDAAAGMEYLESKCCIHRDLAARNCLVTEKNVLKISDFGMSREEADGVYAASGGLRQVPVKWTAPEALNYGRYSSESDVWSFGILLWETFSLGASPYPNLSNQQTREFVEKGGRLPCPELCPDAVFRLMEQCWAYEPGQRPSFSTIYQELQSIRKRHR

FGFR1 = FGFR1 (UniProt P11362); assay: as above
Chain of FGFR1 (P11362 whole entry, looked up): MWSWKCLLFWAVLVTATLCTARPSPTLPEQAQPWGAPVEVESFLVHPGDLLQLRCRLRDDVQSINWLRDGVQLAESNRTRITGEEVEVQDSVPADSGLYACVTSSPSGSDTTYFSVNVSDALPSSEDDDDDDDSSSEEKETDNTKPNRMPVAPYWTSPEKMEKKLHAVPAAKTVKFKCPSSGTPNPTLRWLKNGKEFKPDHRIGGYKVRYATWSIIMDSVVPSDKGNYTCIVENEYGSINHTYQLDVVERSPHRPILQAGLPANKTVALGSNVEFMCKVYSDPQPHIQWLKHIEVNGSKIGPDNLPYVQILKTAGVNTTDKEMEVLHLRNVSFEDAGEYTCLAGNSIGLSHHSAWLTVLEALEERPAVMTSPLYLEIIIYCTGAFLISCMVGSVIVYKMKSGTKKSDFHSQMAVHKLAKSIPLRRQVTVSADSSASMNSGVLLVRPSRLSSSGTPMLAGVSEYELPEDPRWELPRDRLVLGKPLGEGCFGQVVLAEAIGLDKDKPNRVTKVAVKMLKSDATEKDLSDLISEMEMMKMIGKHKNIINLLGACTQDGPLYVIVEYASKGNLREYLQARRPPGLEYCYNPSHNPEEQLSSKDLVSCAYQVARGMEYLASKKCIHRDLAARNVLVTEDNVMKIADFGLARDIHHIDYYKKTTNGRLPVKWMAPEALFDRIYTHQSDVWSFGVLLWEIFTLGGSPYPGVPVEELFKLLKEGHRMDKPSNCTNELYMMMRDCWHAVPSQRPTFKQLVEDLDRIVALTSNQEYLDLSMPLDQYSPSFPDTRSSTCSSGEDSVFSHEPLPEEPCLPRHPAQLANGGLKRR

EPHB1 = EPHB1 (UniProt P54762); assay: as above
c-Abl (mouse) = assay: as above
AncSZ = assay: as above
SHP2-C SH2 = assay: SH2 binding enrichment of the phosphorylated peptide, bacterial display (enrichment ratio); higher = better substrate or ligand; peptides without Tyr show the background
Grb2 SH2 = Grb2 SH2 (UniProt P62993); assay: as above
c-Src SH2 = assay: as above
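Throughout, for SH2 binding enrichment of the phosphorylated peptide, bacterial display: peptide library displayed on the E. coli surface as eCPX fusions, selected cells deep-sequenced, score is each peptide's frequency after selection divided by its frequency in the input.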
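Throughout, for phosphorylation enrichment, bacterial display: 11-residue human phosphosite peptides and single-mutation variants displayed on the E. coli surface, counted by deep sequencing, each peptide's frequency after selection divided by its frequency in the unselected input library; frequency after pTyr selection over input frequency; kinase dosed for 20-30% of maximal phosphorylation in three min.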

Row | SH2 binding enrichment (SHP2-C SH2) | SH2 binding enrichment (Grb2 SH2) | SH2 binding enrichment (c-Src SH2) | Sequence | phosphorylation enrichment (EPHB2) | phosphorylation enrichment (Fer (mouse)) | phosphorylation enrichment (Fyn) | phosphorylation enrichment (Jak2) | phosphorylation enrichment (FGFR3) | phosphorylation enrichment (MERTK) | phosphorylation enrichment (Hck) | phosphorylation enrichment (c-Src) | phosphorylation enrichment (Fes) | phosphorylation enrichment (FGFR1) | phosphorylation enrichment (EPHB1) | phosphorylation enrichment (c-Abl (mouse)) | phosphorylation enrichment (AncSZ)
1 | 0.651 | 0.852 | 0.472 | IIGNGYYFRVF [MYBPC3_Y1135] | 0.619 | 0.413 | 0.327 | 1.46 | 0.79 | 0.318 | 0.373 | 0.335 | 1.16 | 0.374 | 0.628 | 0.775 | 1.08
2 | 0.832 | 0.879 | 0.52 | IKELTYQTEED [MYH7_Y1852] | 0.612 | 0.635 | 0.579 | 1.1 | 0.773 | 0.441 | 0.604 | 0.467 | 1.33 | 0.54 | 0.591 | 0.753 | 1.27
3 | 0.621 | 0.691 | 0.416 | IPPRRYFCSGV [STAMBP_Y36_R38C] | 0.466 | 0.403 | 0.478 | 0.667 | 0.447 | 0.432 | 0.464 | 0.393 | 0.739 | 0.428 | 0.342 | 0.593 | 0.642
4 | 1.04 | 0.783 | 2.57 | IQRSLYDCPAS [PDGFRA_Y762_R764C] | 2.5 | 4.18 | 0.732 | 0.825 | 0.706 | 3.85 | 2.25 | 0.81 | 0.973 | 0.592 | 2.37 | 1.47 | 1.38
5 | 0.698 | 0.835 | 0.62 | IRTDAYVWAMT [RPE65_Y89_R91W] | 0.6 | 0.554 | 0.446 | 0.904 | 0.75 | 0.413 | 0.517 | 0.372 | 1.11 | 0.613 | 0.573 | 0.724 | 1.07
6 | 0.687 | 0.692 | 0.419 | ISDNACQFMLT [MYH7_Y162_Y162C_YF] | 0.615 | 0.51 | 0.597 | 1.04 | 0.877 | 0.448 | 0.606 | 0.448 | 1.21 | 0.588 | 0.712 | 0.696 | 0.946
7 | 0.603 | 0.968 | 0.701 | ITVCDYTNPCT [MYD88_Y276] | 0.691 | 0.395 | 0.401 | 1.11 | 0.719 | 0.426 | 0.415 | 1.26 | 1.02 | 0.521 | 0.583 | 0.651 | 1.66
8 | 1.03 | 1.12 | 0.734 | IVFVICDEVVK [SLC25A1_Y297_Y297C] | 0.555 | 0.498 | 0.442 | 1.01 | 0.833 | 0.333 | 0.501 | 0.393 | 1.25 | 0.484 | 0.652 | 0.55 | 1.15
9 | 1.4 | 1.7 | 1.43 | KACKHYLTTRT [ZBTB5_Y118] | 0.507 | 0.534 | 0.505 | 0.978 | 0.64 | 0.563 | 0.501 | 0.659 | 0.964 | 0.448 | 0.46 | 0.859 | 0.712
10 | 0.705 | 0.879 | 0.478 | KCCCIYEKPRA [PPP1R11_Y64] | 1.06 | 8.2 | 1.95 | 1.34 | 0.814 | 1.65 | 2.67 | 3.6 | 1.46 | 0.523 | 1.07 | 7.54 | 2.23
11 | 0.701 | 1 | 0.736 | KDHPDYKFQRR [SOX10_Y171_P175R_YF] | 0.387 | 0.612 | 0.321 | 0.615 | 0.423 | 0.389 | 0.382 | 0.446 | 0.631 | 0.338 | 0.338 | 0.667 | 0.696
12 | 0.708 | 0.763 | 0.474 | KEAALYPHLPP [SQSTM1_Y383] | 0.373 | 0.42 | 0.391 | 1.04 | 0.649 | 0.391 | 0.362 | 0.48 | 0.796 | 0.459 | 0.414 | 0.669 | 0.67

Further lines, the sequence ahead of its results:

Row | Sequence | SH2 binding enrichment (SHP2-C SH2) | SH2 binding enrichment (Grb2 SH2) | SH2 binding enrichment (c-Src SH2) | phosphorylation enrichment (EPHB2) | phosphorylation enrichment (Fer (mouse)) | phosphorylation enrichment (Fyn) | phosphorylation enrichment (Jak2) | phosphorylation enrichment (FGFR3) | phosphorylation enrichment (MERTK) | phosphorylation enrichment (Hck) | phosphorylation enrichment (c-Src) | phosphorylation enrichment (Fes) | phosphorylation enrichment (FGFR1) | phosphorylation enrichment (EPHB1) | phosphorylation enrichment (c-Abl (mouse)) | phosphorylation enrichment (AncSZ)
13 | IDFARYWHGDD [MMP11_Y162] | 0.878 | 0.843 | 0.674 | 0.504 | 0.799 | 0.405 | 0.639 | 0.567 | 0.536 | 0.463 | 0.387 | 0.857 | 0.477 | 0.676 | 0.592 | 0.81
14 | IEENGYNTFAS [FGF10_Y161_YF] | 0.66 | 0.749 | 1.45 | 0.526 | 0.498 | 0.451 | 0.961 | 0.614 | 0.506 | 0.477 | 0.628 | 1.07 | 0.602 | 0.478 | 0.846 | 0.952
15 | IHADICRWFNI [MARS1_Y344_Y344C] | 0.633 | 0.779 | 0.526 | 0.546 | 0.464 | 0.395 | 0.809 | 0.675 | 0.356 | 0.497 | 0.334 | 1.18 | 0.413 | 0.639 | 0.697 | 0.962
16 | IIEDPYFGNDS [ACP1_Y132_YF] | 0.584 | 0.946 | 0.541 | 0.62 | 0.711 | 0.867 | 1.45 | 1.1 | 0.651 | 0.96 | 1.74 | 1.62 | 0.695 | 0.804 | 1.04 | 1.59
17 | IKAGAYDFPSL [CAMK2A_Y230_P235L] | 0.626 | 0.774 | 4.76 | 0.493 | 1.03 | 0.877 | 0.603 | 0.484 | 5.66 | 0.382 | 0.388 | 0.647 | 0.41 | 0.418 | 0.541 | 0.761
18 | IKIMGYFIRTI [IDS_Y490_S491F] | 1.5 | 1.82 | 1.04 | 0.561 | 0.547 | 0.402 | 0.93 | 0.785 | 0.514 | 0.497 | 0.424 | 1.08 | 0.479 | 0.432 | 0.813 | 0.932
19 | ILNANCMAKRL [GLDC_Y839_Y839C] | 0.727 | 0.802 | 0.534 | 0.439 | 0.342 | 0.351 | 0.611 | 0.403 | 0.42 | 0.391 | 0.378 | 0.628 | 0.477 | 0.306 | 0.498 | 0.612
20 | ILTFKYLQKPM [KIT_Y547_YF] | 0.474 | 0.659 | 0.449 | 0.759 | 0.562 | 0.579 | 1.42 | 0.742 | 0.548 | 0.543 | 0.605 | 1.29 | 0.485 | 0.792 | 1.07 | 1.19
21 | ILTYKYLQIPM [KIT_Y547_K550I] | 3.97 | 0.893 | 0.929 | 0.631 | 0.389 | 0.422 | 0.817 | 0.807 | 0.406 | 0.483 | 0.396 | 0.997 | 0.785 | 0.7 | 0.706 | 1.11
22 | IMITDYLPLFR [INSR_Y87_L89P] | 0.857 | 1.21 | 0.659 | 0.651 | 0.376 | 0.473 | 2.85 | 0.729 | 0.427 | 0.755 | 0.577 | 0.985 | 0.737 | 0.641 | 0.732 | 1.09
23 | INASGYRVGPA [ACSM1_Y477_I479V] | 0.691 | 0.853 | 0.358 | 0.485 | 0.563 | 0.411 | 0.523 | 0.629 | 0.49 | 0.643 | 0.51 | 0.901 | 0.595 | 0.564 | 0.615 | 0.652
24 | INITIYGKTFC [EFHC1_Y177_R182C] | 0.737 | 0.881 | 0.538 | 0.684 | 0.617 | 0.532 | 1.38 | 0.909 | 0.548 | 0.505 | 0.597 | 1.48 | 0.581 | 0.656 | 0.982 | 1.22
25 | IRDENYGEGSS [ACO2_Y665_G661R] | 1.01 | 0.685 | 0.532 | 0.422 | 0.588 | 0.421 | 0.733 | 0.559 | 0.46 | 0.925 | 0.481 | 0.936 | 0.437 | 0.364 | 0.639 | 0.917
26 | ISIFHYAKGQP [MPZ_Y82] | 0.739 | 0.874 | 0.7 | 0.481 | 0.434 | 0.463 | 0.855 | 0.68 | 0.379 | 0.466 | 0.35 | 1.03 | 0.456 | 0.69 | 0.644 | 1.04
27 | ISITPYPAILH [IFT80_Y588] | 0.547 | 0.616 | 0.385 | 0.484 | 0.37 | 0.409 | 1.2 | 0.676 | 0.36 | 0.465 | 0.414 | 1.24 | 0.433 | 0.578 | 0.865 | 1.2
28 | ISTAGYSFPEL [EDAR_Y406_I408F] | 0.957 | 0.854 | 6.7 | 0.523 | 0.425 | 0.437 | 1.03 | 0.532 | 0.698 | 0.461 | 0.487 | 0.878 | 0.457 | 0.526 | 0.737 | 0.886
29 | ITNLLYHVVSW [GBA_Y412_G416S] | 1.15 | 1.25 | 0.944 | 5.99 | 5.89 | 3.23 | 3.17 | 7.83 | 7.13 | 4.84 | 3.8 | 1.35 | 9.38 | 8.05 | 3.22 | 1.46
30 | IVAREYFSEAD [CAMK2A_Y106_YF] | 0.867 | 0.9 | 0.566 | 0.657 | 0.563 | 0.538 | 0.965 | 0.752 | 0.472 | 0.5 | 0.491 | 1.16 | 0.508 | 0.6 | 0.728 | 1.09
31 | IVTLKYPIEHG [ACTB_Y69_L65V] | 0.807 | 0.77 | 0.45 | 0.412 | 0.489 | 0.483 | 0.74 | 0.702 | 0.481 | 0.466 | 0.422 | 0.76 | 0.523 | 0.434 | 0.871 | 0.698
32 | KAESWYQTKYE [KRT75_Y342_E337K] | 0.648 | 0.805 | 0.479 | 0.524 | 0.57 | 0.485 | 0.471 | 0.491 | 0.433 | 0.459 | 0.457 | 0.698 | 0.367 | 0.399 | 0.396 | 0.763
33 | KFACSYTPVKA [FLNB_Y708_T703K_YF] | 1.99 | 0.862 | 0.978 | 0.502 | 0.462 | 0.472 | 0.747 | 0.579 | 0.481 | 0.509 | 0.459 | 0.895 | 0.497 | 0.521 | 0.577 | 0.811
